In US20090162363A1 (published 2009) one finds Kd and Ka data, which are given here for 1 molecule.

The target in experiment [1] is T1, recombinant human PEDF protein (pigment epithelium derived factor) (human, UniProt P36955 20-418).
T1 chain: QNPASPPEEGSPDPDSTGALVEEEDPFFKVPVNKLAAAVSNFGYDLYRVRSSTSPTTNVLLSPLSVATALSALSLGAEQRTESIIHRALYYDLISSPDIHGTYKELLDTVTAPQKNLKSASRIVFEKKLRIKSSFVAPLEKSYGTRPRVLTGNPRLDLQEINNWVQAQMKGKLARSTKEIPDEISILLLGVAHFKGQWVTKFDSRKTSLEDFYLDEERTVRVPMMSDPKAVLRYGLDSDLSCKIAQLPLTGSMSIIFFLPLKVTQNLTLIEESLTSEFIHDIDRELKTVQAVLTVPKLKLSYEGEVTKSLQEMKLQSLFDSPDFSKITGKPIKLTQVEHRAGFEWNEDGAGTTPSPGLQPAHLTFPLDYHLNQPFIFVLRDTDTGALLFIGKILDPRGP
The experiment can be described thus: SPR (BIAcore), PEDF immobilized on CM5 chip; PBS with 0.1% NP-40. For orientation: Surface plasmon resonance follows binding to a sensor surface in real time, without labels.

Experiment [2] concerns the target T1, recombinant human PEDF protein (pigment …). Described as above.

B1: R1N (recombinant human PEDF-R1 polypeptide with N-terminal 6xHis tag, from pEXP1-R1N) (receptor)
chain: MFPREKTWNISFAGCGFLGVYYVGVASCLREHAPFLVANATHIYGASAGALTATALVTGVCLGEAGAKFIEVSKEARKRFLGPLHPSFNLVKIIRSFLLKVLPADSHEHASGRLGISLTRVSDGENVIISHFNSKDELIQANVCSGFIPVYCGLIPPSLQGVRYVDGGISDNLPLYELKNTITVSPFSGESDICPQDSSTNIHELRVTNTSIQFNLRNLYRLSKALFPPEPLVLREMCKQGYRDGLRFLQRNGLLNRPNPLLALPPARPHGPEDKDQAVESAQAEDYSQLPGEDHILEHLPARLNEALLEACVEPTDLLTTLSNMLPVRLATAMMVPYTLPLESALSFTIRLLEWLPDVPEDIRWMKEQTGSICQYLVMRAKRKLGRHLPSRLPEQVELRRVQSLPSVPLSCAAYREALPGWMRNNLSLGDALAKWEECQRQLLLGLFCTNVAFPPEALRMRAPADPAPAPADPASPQHQLAGPAPLLSTPAPEARPVIGALGL
In the case of B1, the Kd – broadly, the concentration at which binding is half-saturated – in experiment [1] is 2.31 nM. In addition, the Ka in experiment [2] is 4.32e+08 M⁻¹.
